Measurements as given in article PMC1838920.

Biological target: T1, His6-CIII (bacteriophage lambda CIII) (bacteriophage lambda), P03044
T1 chain: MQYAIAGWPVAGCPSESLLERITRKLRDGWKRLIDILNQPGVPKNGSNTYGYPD
Test: cross-linking; 10 µM His6-CIII in PBS with 0.1 mg/ml BSA at 42°C, 0.25% glutaraldehyde for 1 or 5 minutes, stopped by 200 mM glycine; NuPAGE and western blot against the His6 tag
Conditions: remark: other sources report otherwise

B1: His6-CIII (bacteriophage lambda CIII), P03044 1-54 (natural protein)
chain: MQYAIAGWPVAGCPSESLLERITRKLRDGWKRLIDILNQPGVPKNGSNTYGYPD
stoichiometry N: < 12
